Experimental findings from EP1207201A1, “NOVEL G PROTEIN-COUPLED RECEPTOR PROTEIN AND DNA THEREOF” (Takeda Chemical Industries, Ltd., priority 1999, dated 2001) are described below.

Where no end group is shown, it is not given here.

The target of the experiment is T1, AQ27 (Homo sapiens, UniProt Q96P65).
T1 construct: expressed in transfected cells; host or cells: CHO cells
T1 sequence (Q96P65 1-431): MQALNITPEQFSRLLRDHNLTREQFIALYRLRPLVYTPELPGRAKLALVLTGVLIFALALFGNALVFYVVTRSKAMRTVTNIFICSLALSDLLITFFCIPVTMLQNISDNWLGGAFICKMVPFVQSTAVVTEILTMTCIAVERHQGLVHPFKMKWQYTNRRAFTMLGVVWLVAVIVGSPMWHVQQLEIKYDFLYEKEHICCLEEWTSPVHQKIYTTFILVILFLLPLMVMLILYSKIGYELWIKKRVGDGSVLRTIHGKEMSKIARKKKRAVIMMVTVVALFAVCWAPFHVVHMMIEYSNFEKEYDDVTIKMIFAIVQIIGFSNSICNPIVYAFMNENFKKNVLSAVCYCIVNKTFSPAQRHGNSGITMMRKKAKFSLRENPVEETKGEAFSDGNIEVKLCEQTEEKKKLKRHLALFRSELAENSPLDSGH
In words: Cytosensor cell activation (increase of acidification rate) in AQ27-expressing CHO cells versus mock cells. Conditions: 10 µM, exposure 7 minutes and 2 seconds, AQ27-expressing CHO cells compared with mock cells. It counts as cell-based. On the procedure:
The vertical axis represents a cycle of measurement. "•" denotes the reactivity of receptor-expressed CHO cells and "○" denotes the reactivity of mock cells.
The AQ27-expressing CHO cells and mock cells were inoculated in a capsule for Cytosensor at a concentration of 2.7 x 10^5 cells/capsule, respectively, incuvated overnight, and mounted onto Cytosensor(Molecular Device). After the acidification rare became stable, the cells were exposed to 10 µM Enkephalin-Arg-Phe amide (Bachem, H-2835) for 7 minutes and 2 seconds. The cell activation was measured using the increasing rate of the acidification rate as index.

In the case of “Met-Enkephalin-Arg-Phe amide (YGGFMRF-NH2) [peptide amide purchased from Bachem, H-2835]”, the “cell activation measured using the increasing rate of the acidification rate as index” value is reported as “specifically activates the AQ27-expressing CHO cells”.
